Laboratory results taken from patent publication US11066482B2, “Specific plasmin inactivation by anticatalytic antibody” (priority 2017, dated 2021).

Assays:
[1] = biological target: T1, plasmin activity in bovine plasma (Bos taurus, UniProt P06868); assay: Plasmin activity in plasma after urokinase, S2251; assay type: biochemical; conditions: Pi 1 uM
T1 construct: from tissue; host or cells: bovine plasma
Description: (§1) FIGS. 3A-3D show binding and inhibitory specificity of Pi. […] The effect of various concentrations of Pi (0-2000 nM) on clots formed with human, baboon or African green monkey plasmas. Clot lysis was measured in microtiter plates after addition of urokinase as described in Methods.
(§2) Specificity of plasmin inhibition. The effect of the Pi on different animal plasmins was examined after addition of the plasminogen activator urokinase. Various animal plasmas (5 ul) were mixed in microtiter plates in the presence of Pi (1 uM, 10 ul) or buffer, S2251 (10 ul, 0.5 mM final), urokinase (100 or 200 U) in a total volume of 100 ul with PBS. The plates were incubated at 37 deg. C. and the rate of plasmin generation was monitored by substrate cleavage at 405 nm for 1 hr.

[2] = tested on: plasmin activity in cat plasma; assay: Plasmin activity in plasma after urokinase, S2251; assay type: biochemical; conditions: Pi 1 uM
Description: as §1, §2

[3] = biological target: T2, plasmin activity in dog plasma (Canis lupus familiaris, UniProt P80009); assay: Plasmin activity in plasma after urokinase, S2251; assay type: biochemical; conditions: Pi 1 uM
T2 construct: from tissue; host or cells: dog plasma
T2 sequence (P80009 with tags, fused parts or gaps): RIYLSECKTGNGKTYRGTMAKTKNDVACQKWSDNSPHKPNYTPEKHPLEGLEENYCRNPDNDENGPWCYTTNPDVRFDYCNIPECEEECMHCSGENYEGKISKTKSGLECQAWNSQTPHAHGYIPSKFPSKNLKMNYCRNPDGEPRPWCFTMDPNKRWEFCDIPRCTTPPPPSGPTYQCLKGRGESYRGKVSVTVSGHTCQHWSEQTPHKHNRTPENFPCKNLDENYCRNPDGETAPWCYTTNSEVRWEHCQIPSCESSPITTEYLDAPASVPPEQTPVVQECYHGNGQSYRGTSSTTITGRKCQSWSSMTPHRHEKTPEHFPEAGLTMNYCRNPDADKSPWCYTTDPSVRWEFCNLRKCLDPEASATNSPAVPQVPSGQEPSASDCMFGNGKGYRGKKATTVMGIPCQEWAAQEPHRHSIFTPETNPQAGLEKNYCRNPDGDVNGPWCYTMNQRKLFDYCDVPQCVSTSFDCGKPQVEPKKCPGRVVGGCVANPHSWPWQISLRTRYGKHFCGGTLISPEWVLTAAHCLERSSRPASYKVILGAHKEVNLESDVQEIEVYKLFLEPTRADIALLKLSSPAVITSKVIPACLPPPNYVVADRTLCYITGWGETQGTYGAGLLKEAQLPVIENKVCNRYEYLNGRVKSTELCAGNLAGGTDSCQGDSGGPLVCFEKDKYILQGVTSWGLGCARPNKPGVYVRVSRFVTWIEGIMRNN
Description: as §1, §2

[4] = tested on: plasmin activity in gerbil plasma; assay: Plasmin activity in plasma after urokinase, S2251; assay type: biochemical; conditions: Pi 1 uM
Description: as §1, §2

[5] = tested on: plasmin activity in guinea pig plasma; assay: Plasmin activity in plasma after urokinase, S2251; assay type: biochemical; conditions: Pi 1 uM
Description: as §1, §2

[6] = tested on: plasmin activity in hamster plasma; assay: Plasmin activity in plasma after urokinase, S2251; assay type: biochemical; conditions: Pi 1 uM
Description: as §1, §2

[7] = biological target: T3, plasmin activity in pig plasma (Sus scrofa, UniProt P06867); assay: Plasmin activity in plasma after urokinase, S2251; assay type: biochemical; conditions: Pi 1 uM
T3 construct: from tissue; host or cells: pig plasma
T3 sequence (P06867 97-579 limits assumed): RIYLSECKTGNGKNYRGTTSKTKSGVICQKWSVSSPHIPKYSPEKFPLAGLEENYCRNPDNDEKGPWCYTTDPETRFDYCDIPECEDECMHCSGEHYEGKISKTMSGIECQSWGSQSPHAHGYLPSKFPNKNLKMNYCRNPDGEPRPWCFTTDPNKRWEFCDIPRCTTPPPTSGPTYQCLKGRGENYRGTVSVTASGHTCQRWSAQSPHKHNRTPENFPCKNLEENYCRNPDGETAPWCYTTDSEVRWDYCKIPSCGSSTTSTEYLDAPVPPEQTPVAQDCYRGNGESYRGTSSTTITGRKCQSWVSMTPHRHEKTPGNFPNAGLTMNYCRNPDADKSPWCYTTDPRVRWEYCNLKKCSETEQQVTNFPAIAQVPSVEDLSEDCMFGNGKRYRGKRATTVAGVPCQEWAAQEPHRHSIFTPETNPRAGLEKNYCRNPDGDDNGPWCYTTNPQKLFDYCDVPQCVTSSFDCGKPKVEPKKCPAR
T3 sequence (P06867 580-809 limits assumed): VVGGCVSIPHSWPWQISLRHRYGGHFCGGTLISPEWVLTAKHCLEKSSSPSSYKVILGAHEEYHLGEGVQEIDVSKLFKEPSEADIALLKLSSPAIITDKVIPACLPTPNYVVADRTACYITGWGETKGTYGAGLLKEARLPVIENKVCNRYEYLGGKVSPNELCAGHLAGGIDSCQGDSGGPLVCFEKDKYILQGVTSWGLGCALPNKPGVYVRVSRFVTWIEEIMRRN
Description: as §1, §2

[8] = tested on: plasmin activity in rabbit plasma; assay: Plasmin activity in plasma after urokinase, S2251; assay type: biochemical; conditions: Pi 1 uM
Description: as §1, §2

[9] = biological target: T4, plasmin activity in rat plasma (Rattus norvegicus, UniProt Q01177); assay: Plasmin activity in plasma after urokinase, S2251; assay type: biochemical; conditions: Pi 1 uM
T4 construct: from tissue; host or cells: rat plasma
T4 sequence (Q01177 97-581 limits assumed): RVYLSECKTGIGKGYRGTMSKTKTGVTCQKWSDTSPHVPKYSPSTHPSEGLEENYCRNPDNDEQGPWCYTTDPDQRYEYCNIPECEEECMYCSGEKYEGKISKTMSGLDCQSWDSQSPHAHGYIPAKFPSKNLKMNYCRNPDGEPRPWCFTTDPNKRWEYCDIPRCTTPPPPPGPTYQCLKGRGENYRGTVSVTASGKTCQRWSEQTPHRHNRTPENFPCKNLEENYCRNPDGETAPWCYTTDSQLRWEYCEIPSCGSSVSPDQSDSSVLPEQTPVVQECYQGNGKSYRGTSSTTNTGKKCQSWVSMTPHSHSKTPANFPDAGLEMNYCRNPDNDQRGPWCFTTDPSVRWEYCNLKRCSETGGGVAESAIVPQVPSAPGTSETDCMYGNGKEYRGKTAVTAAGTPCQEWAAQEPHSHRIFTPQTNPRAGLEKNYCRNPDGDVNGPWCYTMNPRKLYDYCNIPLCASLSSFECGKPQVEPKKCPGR
T4 sequence (Q01177 582-812 limits assumed): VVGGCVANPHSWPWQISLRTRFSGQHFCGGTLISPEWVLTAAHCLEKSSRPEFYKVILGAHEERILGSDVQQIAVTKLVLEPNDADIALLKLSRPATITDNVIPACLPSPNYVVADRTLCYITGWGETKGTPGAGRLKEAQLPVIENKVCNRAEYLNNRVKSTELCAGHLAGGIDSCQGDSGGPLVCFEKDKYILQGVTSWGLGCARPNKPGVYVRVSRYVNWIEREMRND
Description: as §1, §2

plasmin in human plasma = biological target: T5, plasmin in human plasma (Homo sapiens, UniProt P00747); assay: Plasmin activity in plasma after urokinase, S2251; assay type: biochemical; conditions: Pi 1 uM
T5 construct: from tissue; host or cells: human plasma
T5 sequence (P00747 97-580 limits assumed): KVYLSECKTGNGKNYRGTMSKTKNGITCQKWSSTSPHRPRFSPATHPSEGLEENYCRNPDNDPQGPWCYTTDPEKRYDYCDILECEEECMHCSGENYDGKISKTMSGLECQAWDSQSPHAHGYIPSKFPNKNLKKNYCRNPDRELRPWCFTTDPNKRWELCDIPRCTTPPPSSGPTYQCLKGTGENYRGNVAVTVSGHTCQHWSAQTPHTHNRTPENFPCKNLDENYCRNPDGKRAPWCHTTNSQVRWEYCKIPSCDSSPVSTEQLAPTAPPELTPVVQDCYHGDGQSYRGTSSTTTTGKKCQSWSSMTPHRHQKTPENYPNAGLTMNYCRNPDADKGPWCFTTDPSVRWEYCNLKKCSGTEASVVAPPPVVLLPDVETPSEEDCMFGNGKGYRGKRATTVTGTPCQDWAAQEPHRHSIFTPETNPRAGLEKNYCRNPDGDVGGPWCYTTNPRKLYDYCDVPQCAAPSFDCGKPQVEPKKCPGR
T5 sequence (P00747 581-810 limits assumed): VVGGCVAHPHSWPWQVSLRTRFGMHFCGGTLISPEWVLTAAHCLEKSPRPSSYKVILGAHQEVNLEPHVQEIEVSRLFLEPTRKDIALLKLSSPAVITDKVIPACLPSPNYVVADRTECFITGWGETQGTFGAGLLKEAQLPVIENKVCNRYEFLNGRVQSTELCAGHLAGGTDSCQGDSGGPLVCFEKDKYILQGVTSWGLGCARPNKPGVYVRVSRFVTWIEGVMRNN
Description: as §1, §2

[10] = tested on: African green monkey clots; assay: Primate clot lysis, microtiter plate, urokinase; assay type: biochemical; conditions: African green monkey plasma, Pi 0-2000 nM, urokinase 10 U
Description: as §1
(§3) The ability of Pi to inhibit primate clot lysis was also examined in a microtiter plate assay. Human, baboon or African green monkey plasma (5 ul) was added to 96-well plates in the presence of various concentrations of Pi (0-2000 nM), CaCl2 (2 mM), thrombin (0.125 U/ml) and human fibrinogen (2 mg/ml) and urokinase (10 U). The wells were incubated at 37° C., clot lysis was recorded kinetically for 120 min. and the time required for complete clot lysis was recorded.

baboon clots = assay: Primate clot lysis, microtiter plate, urokinase; assay type: biochemical; conditions: baboon plasma, Pi 0-2000 nM, urokinase 10 U
Description: as §1, §3

human clots = assay: Primate clot lysis, microtiter plate, urokinase; assay type: biochemical; conditions: human plasma, Pi 0-2000 nM, urokinase 10 U
Description: as §1, §3

[11] = biological target: plasmin-mediated cleavage of factor V (Homo sapiens, UniProt P00747); assay: Factor V cleavage by plasmin, SDS-PAGE; assay type: biochemical; conditions: EACA 1 mM or Pi 5 ug, 1 hr RT
Sequence of plasmin-mediated cleavage of factor V (P00747 97-580 limits assumed): as the sequence (P00747 97-580 limits assumed) above
Sequence of plasmin-mediated cleavage of factor V (P00747 581-810 limits assumed): as the sequence (P00747 581-810 limits assumed) above
Description: FIGS. 4A-4D show comparative inhibition of factor V cleavage and human clot fibrinolysis (dissolution) by Pi, EACA and a2AP. […] The relative migration of molecular weight standards is shown (kDa). […] Human plasma was clotted with CaCl2 (10 mM) and thrombin (1 U/ml) in the presence of trace amounts of 1251 fibrinogen for 1 h at 37 deg. C. After washing in 1 ml of TBS pH 7.4, tPA (5 nM) was added in the presence of various amounts of Pi (62.5 to 1000 nM), EACA (0.125 mM to 2 mM) or no inhibitor. After 2.5 h the amount of fibrinolysis was determined by measuring the amount of 125I-fibrin dissolved in the supernatant. Means of duplicate observations are shown. […] Clots were formed as above in the presence of human plasminogen (2 uM) and a2AP (1 uM) or Pi (1 uM) and various amounts of tPA (0-10 nM). Clot dissolution was monitored in duplicate over 2 h in microtiter plate wells at A405 nm. […] Human plasma clots were mixed with various concentrations of Pi IgG, Pi Fab and chimeric Pi Fab (25 nM-400 nM) and plasmin was activated by urokinase. The amount of clot lysis was determined as described in Methods.
Factor V cleavage. Human factor V (2 ug, IHFV, Innovative Research) was mixed with plasmin (0.05 ug) for 1 hr at RT in the presence of EACA (1 mM), Pi (5 ug) or a control monoclonal antibody (digoxin, 5 ug). […] Protein bands were detected by staining with Coomassie blue dye.

[12] = tested on: plasmin-mediated fibrinolysis of human fibrin clots; assay: Fibrinolysis of 125I-fibrin human plasma clots with tPA, EACA vs Pi; assay type: biochemical; conditions: tPA 5 nM, 2.5 h; Pi 62.5 to 1000 nM, EACA 0.125 mM to 2 mM
fibrinolytic bleeding = assay: Fibrinolytic bleeding assay in vivo (humanized tail bleeding model); set-up: species or system mice; conditions: Pi 100 nmole/kg intravenously, mice given human plasminogen and plasminogen activator
Description: Anesthetized mice were treated in a randomized, blinded fashion with saline (Control), Pi (100 nmole/kg) or EACA (510 micromole/kg) intravenously. Human plasminogen (100 nmole/kg) and plasminogen activator (80,000 IU/kg) were given over 60 min. Tail bleeding was initiated 40 min. after the infusion. Tails were pre-warmed for 5 mins in 3 mL of 37° C. saline and bleeding was monitored as described.36,37 N=5-6, Means±SE are shown. *p<0.05, **p<0.01; ns, not significant. Kruskal Wallis one way ANOVA, Dunn's corrections.
Fibrinolytic bleeding assays in vivo. Anesthetized mice were treated in a randomized, blinded fashion with saline (Control), Pi (100 nmole/kg) or EACA (510 micromole/kg). Human plasminogen (100 nmole/kg) and plasminogen activator (80,000 IU/kg) were given over 60 min. Tail bleeding started 40 min. after the infusion. Tails were pre-warmed for 5 mins in 3 mL of 37° C. saline as described.(27, 28).
Suppression of fibrinolytic bleeding in vivo. The potential utility of the Pi for suppression of fibrinolytic bleeding was examined in vivo in randomized, blinded studies of surgical arterial and venous hemorrhage.

T1 sequence (P06868 104-583 limits assumed): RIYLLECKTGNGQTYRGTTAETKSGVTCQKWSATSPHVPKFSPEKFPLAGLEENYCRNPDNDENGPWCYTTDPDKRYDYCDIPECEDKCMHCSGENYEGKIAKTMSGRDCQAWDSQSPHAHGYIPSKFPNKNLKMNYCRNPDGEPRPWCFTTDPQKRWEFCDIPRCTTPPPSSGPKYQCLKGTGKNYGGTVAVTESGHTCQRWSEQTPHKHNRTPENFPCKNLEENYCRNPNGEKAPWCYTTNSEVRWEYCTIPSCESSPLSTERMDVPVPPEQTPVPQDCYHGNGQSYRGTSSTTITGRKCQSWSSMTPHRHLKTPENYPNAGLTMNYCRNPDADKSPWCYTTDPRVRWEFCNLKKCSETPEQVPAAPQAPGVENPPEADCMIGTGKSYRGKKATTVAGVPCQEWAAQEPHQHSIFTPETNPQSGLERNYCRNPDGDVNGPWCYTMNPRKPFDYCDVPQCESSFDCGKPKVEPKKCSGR
T1 sequence (P06868 584-812 limits assumed): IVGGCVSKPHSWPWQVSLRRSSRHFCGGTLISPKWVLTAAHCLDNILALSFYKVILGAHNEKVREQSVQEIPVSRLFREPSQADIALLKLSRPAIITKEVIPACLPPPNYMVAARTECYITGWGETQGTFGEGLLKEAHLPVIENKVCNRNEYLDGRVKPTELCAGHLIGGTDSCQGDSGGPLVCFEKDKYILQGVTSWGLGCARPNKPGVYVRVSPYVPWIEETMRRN

B1: Pi: mouse monoclonal antibody plasmin inhibitor binding plasmin protease domain loops 4 and 5; LC SEQ ID NO:1, HC SEQ ID NO:4 (antibody)
heavy: EVKLLESGGGLVQPGGSLKLSCAASGFDFSRYWMSWVRQAPGKGLEWIGEINPDSSTINYTPSLKDKFIISRDNAKNSLYLQMSKVRSEDTALYYCASYCGYSYDALDCWGQGTSVTVSSAKTTPPSVYPLAPGSAAQTNSMVTLGCLVKGYFPEPVTVTWNSGSLSSGVHTFPAVLQSDLYTLSSSVTVPSSTWPSETVTCNVAHPASSTKVDKKIVPRDCGCKPCICTVPEVSSVFIFPPKPKDVLTITLTPKVTCVVVDISKDDPEVQFSWFVDDVEVHTAQTQPREEQFNSTFRSVSELPIMHQDWLNGKEFKCRVNSVAFPAPIEKTISKTKGRPKAPQVYTIPPPKEQMAKDKVSLTCMITDFFPEDITVEWQWNGQPAENYKNTQPIMDTDGSYFVYGKLNVQKSNWEAGNTFTCSVLHEGLHNHHTEKSLSHSPGK
light: DIQMTQSPSSLSASLGGKVSITCKASQDINKYISWYQHKPGKGPRLLIHYTSTLQPGIPSRFSGSGSGRDYSFSISNLEPEDIATYYCLQYDNLYTFGGGTKLEIKRADAAPTVSIFPPSSEQLTSGGASVVCFLNNFYPKDINVKWKIDGSERQNGVLNSWTDQDSKDSTYSMSSTLTLTKDEYERHNSYTCEATHKTSTSPIVKSFNWNEC
B1 was tested, and the “effect on plasmin activity generated by urokinase” value (“effect … by urokinase” for short) [1] was “did not inhibit plasmin activity”, the “effect … by urokinase” value [2] was “did not inhibit plasmin activity” and the “effect … by urokinase” value [3] was “did not inhibit plasmin activity”. The “effect … by urokinase” value [4] was “did not inhibit plasmin activity”, the “effect … by urokinase” value [5] was “did not inhibit plasmin activity” and the “effect … by urokinase” value [6] was “did not inhibit plasmin activity”. The “effect … by urokinase” value [7] was “did not inhibit plasmin activity”, the “effect … by urokinase” value [8] was “did not inhibit plasmin activity” and the “effect … by urokinase” value [9] was “did not inhibit plasmin activity”. The “effect … by urokinase” value (plasmin in human plasma) was “suppressed plasmin”, the “effect on clot lysis” value [10] was “dose-related suppression” and the “effect on clot lysis” value (baboon clots) was “dose-related suppression”. The “effect on clot lysis” value (human clots) was “markedly prolonged plasmin-induced fibrinolysis”, the “effect on Factor V cleavage by plasmin” value [11] was “Factor V cleavage was attenuated” and the “effect on fibrinolysis of human fibrin clots” value [12] was “significantly suppressed”. The “suppression of bleeding time vs controls” value (fibrinolytic bleeding) was greater than 80% and the “suppression of blood loss vs controls” value (fibrinolytic bleeding) was greater than 85%.
